According to article doi:10.1101/2025.02.08.637281 (bioRxiv, 2025):
Each block holds one binder with its values, some of them ahead of it.

Tests used:
[1] = biological target: T1, ASK2, SKP1-like protein of Arabidopsis thaliana (Arabidopsis thaliana, UniProt Q9FHW7 1-171); test: SEC
T1 sequence (looked up): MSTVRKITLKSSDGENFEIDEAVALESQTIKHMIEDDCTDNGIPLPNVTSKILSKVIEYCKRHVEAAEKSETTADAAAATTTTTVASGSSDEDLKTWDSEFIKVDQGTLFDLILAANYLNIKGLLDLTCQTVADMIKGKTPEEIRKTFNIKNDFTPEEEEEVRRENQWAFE

[2] = biological target: T2, REPRESSOR OF GA1-3 (RGA), full-length, Arabidopsis thaliana DELLA protein (Arabidopsis thaliana, UniProt Q9SLH3 1-587); test: SEC-MALS
T2 sequence (looked up): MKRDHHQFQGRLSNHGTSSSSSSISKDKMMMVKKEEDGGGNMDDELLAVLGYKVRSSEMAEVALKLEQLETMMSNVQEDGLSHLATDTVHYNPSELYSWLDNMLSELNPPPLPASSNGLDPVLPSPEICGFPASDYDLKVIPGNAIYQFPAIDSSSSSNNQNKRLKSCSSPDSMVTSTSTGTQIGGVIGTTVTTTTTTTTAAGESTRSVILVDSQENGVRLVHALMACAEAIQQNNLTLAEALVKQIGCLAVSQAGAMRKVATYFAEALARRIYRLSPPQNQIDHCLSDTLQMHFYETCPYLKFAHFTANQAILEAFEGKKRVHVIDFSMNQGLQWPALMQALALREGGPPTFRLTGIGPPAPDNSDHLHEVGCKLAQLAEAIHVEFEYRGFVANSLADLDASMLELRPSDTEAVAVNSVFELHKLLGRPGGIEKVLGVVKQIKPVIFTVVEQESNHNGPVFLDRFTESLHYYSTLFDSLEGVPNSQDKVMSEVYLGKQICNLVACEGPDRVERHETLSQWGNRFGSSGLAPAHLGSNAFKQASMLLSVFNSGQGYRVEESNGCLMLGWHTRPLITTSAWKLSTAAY

binding result [1]: binds
B1: SLEEPY 1 (SLY1), F-box protein (natural protein, Arabidopsis thaliana, UniProt Q9STX3 1-151, looked up)
chain: MKRSTTDSDLAGDAHNETNKKMKSTEEEEIGFSNLDENLVYEVLKHVDAKTLAMSSCVSKIWHKTAQDERLWELICTRHWTNIGCGQNQLRSVVLALGGFRRLHSLYLWPLSKPNPRARFGKDELKLTLSLLSIRYYEKMSFTKRPLPESK

binding result [2]: binds
B2: GA … DWARF1A (GID1A), gibberellin receptor, GA3-bound (receptor, Arabidopsis thaliana, UniProt Q9MAA7 1-345, looked up)
chain: MAASDEVNLIESRTVVPLNTWVLISNFKVAYNILRRPDGTFNRHLAEYLDRKVTANANPVDGVFSFDVLIDRRINLLSRVYRPAYADQEQPPSILDLEKPVDGDIVPVILFFHGGSFAHSSANSAIYDTLCRRLVGLCKCVVVSVNYRRAPENPYPCAYDDGWIALNWVNSRSWLKSKKDSKVHIFLAGDSSGGNIAHNVALRAGESGIDVLGNILLNPMFGGNERTESEKSLDGKYFVTVRDRDWYWKAFLPEGEDREHPACNPFSPRGKSLEGVSFPKSLVVVAGLDLIRDWQLAYAEGLKKAGQEVKLMHLEKATVGFYLLPNNNHFHNVMDEISAFVNAEC
